Results from the supplement of paper PMC9112550, “Optimization of the antimicrobial peptide Bac7 by deep mutational scanning” (BMC Biology, 2022).

Test system: Escherichia coli TOP10
Assay: shrunken log2 fold change of peptide-encoding DNA abundance (4.5 h post-induction vs induction); higher = less antimicrobial activity (less host growth inhibition)
Settings: time post-induction: 4.5 h; library: site-saturation at positions 5, 18, 19, 20
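Note: peptides expressed intracellularly from a pBAD plasmid library in pooled LB shake-flask culture, induced with 0.3% L-arabinose, DNA abundance read by NGS, three biological replicates, DESeq2 with apeglm shrinkage.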

Sequence | shrunken log2 fold change
RRIRHRPPRLPRPRPRPYDFPRP | -0.0434
RRIRWRPPRLPRPRPRPDWRPRP | -0.0316
RRIRYRPPRLPRPRPRPVPQPRP | -0.0271
RRIRRRPPRLPRPRPRPIFVPRP | 0.0119
RRIRDRPPRLPRPRPRPCLHPRP | 0.0931
RRIRCRPPRLPRPRPRPSIIPRP | -0.348
RRIRGRPPRLPRPRPRPGALPRP | 0.723
RRIRLRPPRLPRPRPRPARAPRP | 0.268
RRIRVRPPRLPRPRPRPPMHPRP | 0.245
RRIRDRPPRLPRPRPRPTEEPRP | 0.355
RRIRSRPPRLPRPRPRPACEPRP | 0.233
RRIRIRPPRLPRPRPRPYSLPRP | -0.607
RRIRTRPPRLPRPRPRPWFDPRP | -0.247
RRIRARPPRLPRPRPRPPFKPRP | 0.368
RRIRTRPPRLPRPRPRPKYAPRP | -0.495
RRIRERPPRLPRPRPRPCDHPRP | -0.0479
RRIRWRPPRLPRPRPRPHTTPRP | 0.0145
RRIRTRPPRLPRPRPRPGCQPRP | -0.0154
RRIRIRPPRLPRPRPRPPPPPRP | 0.714
RRIRLRPPRLPRPRPRPTHIPRP | -0.148
RRIRTRPPRLPRPRPRPWKNPRP | -0.0599
RRIRQRPPRLPRPRPRPIIPPRP | -0.904
RRIRSRPPRLPRPRPRPRIPPRP | -0.179
RRIRCRPPRLPRPRPRPRKDPRP | -0.0271
RRIRARPPRLPRPRPRPKQLPRP | 0.155

Sequence | shrunken log2 fold change
RRIRNRPPRLPRPRPRPGQVPRP | 0.0381
RRIRYRPPRLPRPRPRPTCIPRP | -0.257
RRIRGRPPRLPRPRPRPRPAPRP | 1.07
RRIRYRPPRLPRPRPRPEQNPRP | 0.00317
RRIRLRPPRLPRPRPRPDTAPRP | 0.0121
RRIRNRPPRLPRPRPRPLIYPRP | -0.114
RRIRFRPPRLPRPRPRPPGAPRP | 0.847
RRIRWRPPRLPRPRPRPHIKPRP | -0.243
RRIRFRPPRLPRPRPRPASNPRP | -0.479
RRIRARPPRLPRPRPRPQPPPRP | 0.715
RRIRDRPPRLPRPRPRPKCCPRP | 0.112
RRIRMRPPRLPRPRPRPDDTPRP | 2.17
RRIRNRPPRLPRPRPRPFWIPRP | 0.0948
RRIRKRPPRLPRPRPRPIAQPRP | 0.208
RRIRTRPPRLPRPRPRPLPVPRP | -0.103
RRIRRRPPRLPRPRPRPKDLPRP | -0.0233
RRIRWRPPRLPRPRPRPLQFPRP | 0.0403
RRIRERPPRLPRPRPRPLFAPRP | -0.0197
RRIRIRPPRLPRPRPRPTNVPRP | -0.174
RRIRNRPPRLPRPRPRPDWLPRP | 0.156
RRIRLRPPRLPRPRPRPAWYPRP | 0.0232
RRIRRRPPRLPRPRPRPHCAPRP | 0.419
RRIRMRPPRLPRPRPRPWMIPRP | -0.136
RRIRSRPPRLPRPRPRPLVKPRP | -0.111
RRIRQRPPRLPRPRPRPEKWPRP | -0.191

Sequence | shrunken log2 fold change
RRIRVRPPRLPRPRPRPRASPRP | 0.281
RRIRIRPPRLPRPRPRPVKCPRP | 0.101
RRIRRRPPRLPRPRPRPFIRPRP | -0.326
RRIRDRPPRLPRPRPRPIWGPRP | -0.0681
RRIRKRPPRLPRPRPRPPILPRP | 0.0292
RRIRLRPPRLPRPRPRPDERPRP | 0.0169
RRIRYRPPRLPRPRPRPVMAPRP | -0.335
RRIRMRPPRLPRPRPRPFECPRP | 0.0161
RRIRARPPRLPRPRPRPQLIPRP | 0.184
RRIRKRPPRLPRPRPRPNKMPRP | -0.231
RRIRERPPRLPRPRPRPNMYPRP | -0.976
RRIRMRPPRLPRPRPRPNANPRP | 0.777
RRIRERPPRLPRPRPRPDFIPRP | -0.092
RRIRKRPPRLPRPRPRPPPPPRP | 1.23
RRIRNRPPRLPRPRPRPNYYPRP | -0.473
RRIRRRPPRLPRPRPRPVWGPRP | 0.359
RRIRFRPPRLPRPRPRPRPRPRP | 1.65
RRIRPRPPRLPRPRPRPDFPPRP | -0.0174
RRIRFRPPRLPRPRPRPDYWPRP | -0.142
RRIRQRPPRLPRPRPRPHDWPRP | -0.372
RRIRYRPPRLPRPRPRPWFAPRP | -0.497
RRIRRRPPRLPRPRPRPVQMPRP | 0.158
RRIRVRPPRLPRPRPRPRGYPRP | -0.068
RRIRNRPPRLPRPRPRPKKNPRP | -0.0707
RRIRWRPPRLPRPRPRPEKIPRP | 2.76

Sequence | shrunken log2 fold change
RRIRHRPPRLPRPRPRPFYWPRP | -0.0655
RRIRRRPPRLPRPRPRPGEQPRP | 0.301
RRIRIRPPRLPRPRPRPFDDPRP | 0.0183
RRIRGRPPRLPRPRPRPSIQPRP | 0.176
RRIRNRPPRLPRPRPRPLCIPRP | -0.598
RRIRPRPPRLPRPRPRPIAIPRP | 0.247
RRIRARPPRLPRPRPRPKPNPRP | 0.736
RRIRSRPPRLPRPRPRPIPLPRP | -0.115
RRIRNRPPRLPRPRPRPERDPRP | 0.157
RRIRNRPPRLPRPRPRPYYYPRP | -0.0857
RRIRFRPPRLPRPRPRPTRVPRP | 0.616
RRIRLRPPRLPRPRPRPENAPRP | -0.000678
RRIRFRPPRLPRPRPRPGWKPRP | 0.208
RRIRGRPPRLPRPRPRPIRQPRP | -0.0411
RRIRFRPPRLPRPRPRPNRTPRP | -0.0619
RRIRFRPPRLPRPRPRPDEAPRP | 0.0246
RRIRKRPPRLPRPRPRPSMRPRP | 0.915
RRIRTRPPRLPRPRPRPRTTPRP | 0.419
RRIRDRPPRLPRPRPRPWSCPRP | -0.188
RRIRWRPPRLPRPRPRPEDIPRP | -0.0433
RRIRWRPPRLPRPRPRPHRGPRP | -0.0412
RRIRERPPRLPRPRPRPNLEPRP | -0.228
RRIRERPPRLPRPRPRPKPGPRP | 0.469
RRIRPRPPRLPRPRPRPKWSPRP | -0.113
RRIRCRPPRLPRPRPRPIKLPRP | -0.63

Sequence | shrunken log2 fold change
RRIRWRPPRLPRPRPRPYEKPRP | -0.139
RRIRFRPPRLPRPRPRPGPIPRP | 0.218
RRIRPRPPRLPRPRPRPQPRPRP | 0.603
RRIRWRPPRLPRPRPRPCPMPRP | -0.0512
RRIRKRPPRLPRPRPRPLPEPRP | 0.351
RRIRIRPPRLPRPRPRPWHYPRP | -0.111
RRIRHRPPRLPRPRPRPWFGPRP | -0.0191
RRIRRRPPRLPRPRPRPDEIPRP | 0.116
RRIRCRPPRLPRPRPRPIHSPRP | -0.221
RRIRKRPPRLPRPRPRPAAWPRP | 0.443
RRIRCRPPRLPRPRPRPQPAPRP | 0.632
RRIRERPPRLPRPRPRPTSPPRP | -0.185
RRIRSRPPRLPRPRPRPPMMPRP | 0.0697
RRIRERPPRLPRPRPRPVVMPRP | 0.116
RRIRSRPPRLPRPRPRPKVMPRP | 0.0101
RRIRNRPPRLPRPRPRPYTWPRP | -0.547
RRIRCRPPRLPRPRPRPTWFPRP | 0.141
RRIRDRPPRLPRPRPRPDIVPRP | 0.0868
RRIRCRPPRLPRPRPRPCMRPRP | 0.0312
RRIRLRPPRLPRPRPRPDEQPRP | -0.017
RRIRLRPPRLPRPRPRPVQIPRP | 0.364
RRIRPRPPRLPRPRPRPGVIPRP | -0.321
RRIRHRPPRLPRPRPRPELPPRP | -0.056
RRIRKRPPRLPRPRPRPAHVPRP | 0.03
RRIRIRPPRLPRPRPRPYPNPRP | -0.072
